In experiment [1] the target is Notch3-LD/Fc fusion protein (human Notch3 LIN12/dimerization domain fused to human gamma 1 Fc) (human) [IgG part: P01857]. In words: ELISA, plate coated with Notch3-LD/Fc, hybridoma supernatant. A general note: ELISA stands for enzyme-linked immunosorbent assay.
Experiment [2] shares this target. Description: ELISA on Notch3-LD/Fc.
Experiment [3] has as its target human Notch3 receptor, full-length (human) (UniProt Q9UM47). Description: FACS on Sup-T1 cells naturally expressing Notch3.
Experiment [4] shares this target. Description: FACS on 293T cells expressing Notch3 (Notch3/Hyg).
In a further experiment the target is Notch3-D2/Fc (human) (UniProt Q9UM47). Description: ELISA on Notch3-domain/Fc fusion proteins.
A further experiment addresses Notch3-D1/Fc (human) (UniProt Q9UM47). In words: ELISA on Notch3-domain/Fc fusion proteins.

Results on two molecules are retold here after patent US20120213785A1.

Sequence of human Notch3 receptor, full-length (human) (Q9UM47 40-2321 A2223V limits assumed): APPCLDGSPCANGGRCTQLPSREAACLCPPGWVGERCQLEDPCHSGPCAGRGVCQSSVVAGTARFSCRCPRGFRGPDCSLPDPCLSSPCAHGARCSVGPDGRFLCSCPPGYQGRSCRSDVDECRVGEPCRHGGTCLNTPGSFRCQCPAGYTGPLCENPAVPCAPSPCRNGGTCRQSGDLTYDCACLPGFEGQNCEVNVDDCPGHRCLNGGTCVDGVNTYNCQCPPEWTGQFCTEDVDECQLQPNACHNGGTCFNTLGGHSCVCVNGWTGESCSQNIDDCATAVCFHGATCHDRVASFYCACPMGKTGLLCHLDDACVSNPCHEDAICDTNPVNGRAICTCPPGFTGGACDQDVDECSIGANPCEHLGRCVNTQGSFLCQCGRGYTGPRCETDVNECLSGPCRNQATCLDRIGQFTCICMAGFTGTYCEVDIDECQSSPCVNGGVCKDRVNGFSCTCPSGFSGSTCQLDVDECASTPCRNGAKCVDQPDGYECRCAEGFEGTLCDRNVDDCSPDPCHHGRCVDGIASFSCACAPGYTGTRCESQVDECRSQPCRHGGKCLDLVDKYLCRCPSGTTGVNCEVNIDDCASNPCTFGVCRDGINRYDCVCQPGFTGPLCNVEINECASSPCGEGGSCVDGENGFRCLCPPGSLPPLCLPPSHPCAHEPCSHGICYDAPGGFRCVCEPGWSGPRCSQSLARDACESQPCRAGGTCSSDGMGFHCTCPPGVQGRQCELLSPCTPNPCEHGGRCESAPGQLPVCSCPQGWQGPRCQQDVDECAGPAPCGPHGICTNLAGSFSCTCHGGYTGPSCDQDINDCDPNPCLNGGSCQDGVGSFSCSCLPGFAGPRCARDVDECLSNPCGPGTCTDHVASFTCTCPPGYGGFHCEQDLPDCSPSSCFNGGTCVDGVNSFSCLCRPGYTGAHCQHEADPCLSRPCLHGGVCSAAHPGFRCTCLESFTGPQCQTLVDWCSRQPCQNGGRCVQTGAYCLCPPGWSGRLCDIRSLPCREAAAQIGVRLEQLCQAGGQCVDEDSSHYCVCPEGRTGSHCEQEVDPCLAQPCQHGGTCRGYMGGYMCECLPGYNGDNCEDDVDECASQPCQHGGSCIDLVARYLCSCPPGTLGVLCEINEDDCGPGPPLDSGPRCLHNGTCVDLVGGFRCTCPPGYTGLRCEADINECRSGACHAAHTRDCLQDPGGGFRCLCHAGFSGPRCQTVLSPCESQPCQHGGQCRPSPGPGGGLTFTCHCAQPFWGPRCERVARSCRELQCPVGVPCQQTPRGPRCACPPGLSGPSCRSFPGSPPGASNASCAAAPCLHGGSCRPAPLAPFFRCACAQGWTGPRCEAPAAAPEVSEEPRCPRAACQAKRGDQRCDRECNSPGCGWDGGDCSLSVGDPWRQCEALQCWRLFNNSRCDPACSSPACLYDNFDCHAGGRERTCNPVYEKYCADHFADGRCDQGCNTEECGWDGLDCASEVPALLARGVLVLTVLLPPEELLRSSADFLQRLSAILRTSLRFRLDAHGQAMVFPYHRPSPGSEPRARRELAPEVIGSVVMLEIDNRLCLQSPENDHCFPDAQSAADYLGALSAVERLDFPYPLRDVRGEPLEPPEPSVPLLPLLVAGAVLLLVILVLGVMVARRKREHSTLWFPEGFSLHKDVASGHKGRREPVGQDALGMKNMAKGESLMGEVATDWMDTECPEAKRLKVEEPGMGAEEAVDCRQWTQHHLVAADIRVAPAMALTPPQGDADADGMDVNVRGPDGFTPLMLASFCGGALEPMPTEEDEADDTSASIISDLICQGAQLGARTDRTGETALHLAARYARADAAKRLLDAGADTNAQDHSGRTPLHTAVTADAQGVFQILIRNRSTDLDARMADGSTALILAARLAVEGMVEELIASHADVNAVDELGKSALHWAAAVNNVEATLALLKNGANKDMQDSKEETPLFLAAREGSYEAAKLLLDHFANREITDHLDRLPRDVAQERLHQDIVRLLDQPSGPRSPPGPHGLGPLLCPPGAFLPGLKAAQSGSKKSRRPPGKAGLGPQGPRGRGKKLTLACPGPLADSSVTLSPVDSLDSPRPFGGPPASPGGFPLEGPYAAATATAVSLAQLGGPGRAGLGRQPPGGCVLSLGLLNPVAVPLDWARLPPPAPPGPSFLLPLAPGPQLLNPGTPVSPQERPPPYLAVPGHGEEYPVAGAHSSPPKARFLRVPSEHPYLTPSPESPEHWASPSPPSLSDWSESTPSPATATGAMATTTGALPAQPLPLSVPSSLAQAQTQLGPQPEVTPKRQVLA
Sequence of Notch3-LD/Fc fusion protein (human Notch3 LIN12/dimerization domain fused to human gamma 1 Fc) (human) [IgG part: P01857] (P01857 other isoform, or with tags, fused parts or gaps limits assumed): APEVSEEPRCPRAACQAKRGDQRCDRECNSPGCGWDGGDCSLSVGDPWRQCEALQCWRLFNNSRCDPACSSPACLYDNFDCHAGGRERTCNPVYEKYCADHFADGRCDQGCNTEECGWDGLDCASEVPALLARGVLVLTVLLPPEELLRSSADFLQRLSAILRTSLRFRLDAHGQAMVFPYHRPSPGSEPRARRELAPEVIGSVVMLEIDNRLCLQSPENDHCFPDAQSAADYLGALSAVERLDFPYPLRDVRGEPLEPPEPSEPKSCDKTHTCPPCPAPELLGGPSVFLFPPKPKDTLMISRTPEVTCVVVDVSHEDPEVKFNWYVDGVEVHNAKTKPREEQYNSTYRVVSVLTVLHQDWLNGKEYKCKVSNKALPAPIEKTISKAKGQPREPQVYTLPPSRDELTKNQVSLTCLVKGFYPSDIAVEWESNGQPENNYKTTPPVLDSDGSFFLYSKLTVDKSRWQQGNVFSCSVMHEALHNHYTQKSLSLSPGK

For the molecule Control IgG1 MAb (antibody), the ELISA OD reading (mean) in experiment [1] is 0.019 OD (450 nm); in experiment [2] it was 0.063 OD. The mean fluorescent intensity in experiment [3] was determined as 24.5 MFI; in experiment [4] it was 24.2 MFI.

B1: anti-Notch3 monoclonal antibody MAb 256A-13 (antibody, IgG1, V domains shown)
VH: SQVQLQQSGAELAKPGTSVKMACKASGYTFTTHWMNWVKQRPGQGLEWIGTINPSNDFTDCNQKFKDKAILTADKSSSTAYMQLSSLTSEDSAIYYCASGLTARAWFAYWGQGTLVTVSAA
VL: RATISCRASQSVTTSNYSYMHWFQQKPGQPPKLLIKYASNLDSGVPARFSGSGSGTDFTLNIHPVEEEDTATFYCQHSWEIPYTFGGGTNLEIKRADAAPTV
Consider B1, for which the ELISA OD reading in the experiment with Notch3-D2/Fc (human) and with Notch3-D1/Fc (human) was 0.015 OD throughout.
